Reference: patent publication CN116724049A (UNIV KOELN; PHILIPPS UNIV T MARBURG, dated 2023)

B1: MnC2t1p1_A3 (antibody, V domains shown)
VH: EVQLVESGGGLVQPGGSLRLSCAASGFTVSSNYMSWVRQAPGRGLEWVSVIYSGGSTFYADSVKGRFTISRDNSKNTLYLQMNSLRPEDTAVYYCATGARFGESPFDYWGQGTLVTVSS
VL: DIQMTQSPSSVSASVGDRVTITCRASQGISSWLAWYQQKPGKAPKLLIYAASSLQSGVPSRFSGSGSGTDFTLTISSLQPEDFATYYCQQANSFPGTFGQGTKVEIK
B2: FnC1t2p1_D4 (antibody, V domains shown)
VH: QVQLVQSGSELKKPGASVKVSCKASGYTFLRFAMNWLRQAPGQGLEWMGWIDTNTGTPTYAQGFTGRFVFSLDTSVSTAYLQISSLKAEDTAVYYCARSLRGANLVPWGQGTLVTVSS
VL: DIQMTQSPSSLSASVGDRVTITCQASQDVSNYLNWYQQQPGKAPKLLIYDAFNLETGVPSRFSGSGSGTDFTFTISSLQPEDIATYYCQQYDNLPLTFGGGTKVEIK
B3: FnC1t2p1_G5 (antibody, V domains shown)
VH: B2 VH
VL: B2 VL
B4: MnC4t2p1_B3 (antibody, V domains shown)
VH: EVQLVESGGHLVQPGRSLRLSCAASGFTFDDYAMHWVRQVPGKGLEWVSGISWNGGILDYADSVKGRFTISRDNAKNSLYLHMRSLRTDDTALYYCAKDLRRQDYYADWYFDLWGRGTLVTVSS
VL: DIQMIQSPSSVSASVGDRVTITCRASQGISSWLAWYQQKPGKAPKLLIYAASTLLSAVPSRFSGSGSGTDFTLTISSLQPEDFATYYCQQGNSFPFTFGPGTIVDV
B5: MnC4t2p2_A4 (antibody, V domains shown)
VH: QVQLVQSGSELKKPGASVKISCKASGYIFINYAMNWVRQAPGQGLEWMGWINTNTGNPTYAQDFTGRFVFSLDTSLSTAYLQISSLEAEDTAVYYCAKIGSRNSLGVWGQGTLVTVSA
VL: EIVLTQSPGTLSLSPGERATLSCRASHSVDRSYLAWYQQKPGLAPRLLIYGASSRATGIPDRFSGSGSGTDFTLTISRLEPEDFALYYCQHFGTSSVTFGRGTRLEIK
B6: MnC2t2p1_C11 (antibody, V domains shown)
VH: QVQLVQSGAEVKKPGSSVKVSCKASGGTFSRYTIIWVRQAPGQGLEWMGRIIPILDIANYAQKFQGRVTITADKSTSTAYMELSSLRSEDTAVYYCAREGGLDYFGSRNSGWTYTWFDPWGQGTLVTVSS
VL: DIQMTQSPSSLSASVGDRVTITCRASQNISSYLNWYQQKPGKAPNLLIYAASSLQSGVPPRFSGSGSGTDFTLTISSLQPEDFATYYCQQSYSTLYSFGQGTKLEIK

Target: SARS-CoV-2的刺突(S)蛋白的受体结合结构域(RBD) (SARS-CoV-2, UniProt P0DTC2 319-541)

Row | Binder | Kd [nM]
1 | B1 | 0.7
2 | B2 | 0.2
3 | B3 | 0.1
4 | B4 | 0.09
5 | B5 | 14
6 | B6 | 0.02
